Laboratory results reported in publication PMC11165011, “Proteinase 3 depletion attenuates leukemia by promoting myeloid differentiation” (Cell Death and Differentiation, 2024).

B1: PRTN3 recombinant protein (enzyme, human, UniProt P24158 28-248, looked up)
chain: IVGGHEAQPHSRPYMASLQMRGNPGSHFCGGTLIHPSFVLTAAHCLRDIPQRLVNVVLGAHNVRTQEPTQQHFSVAQVFLNNYDAENKLNDVLLIQLSSPANLSASVATVQLPQQDQPVPHGTQCLAMGWGRVGAHDPPAQVLQELNVTVVTFFCRPHNICTFVPRRKAGICFGDSGGPLICDGIIQGIDSFVIWGCATRLFPDFFTRVALYVDWIRSTLR
notes: Proteinase 3 (PRTN3), human, bought recombinant protein; see the vendor's sheet for HY-P70509; also called hPRTN3; hPR3; source: bought: ACE (HY-P70509)

Experiments:
[1] = target: B1; assay: SPR; Biacore K8, CM5 chip; 'target proteins' at 20 μg/mL in PBS pH 7.2 immobilised by amine coupling at 25 °C (which partner is not stated); 300 s dissociation; steady-state analysis; conditions: both partners purified
[2] = target: T1, STAT3 recombinant protein (whole STAT3) (human, UniProt P40763 1-770); assay: as above; conditions: both partners purified
T1 construct: STAT3, human, bought recombinant protein with the N-terminal domain; In the cleavage test STAT3 ran as a ~120 kDa monomer, which may mean a carrier tag (surmise); also called recombinant human STAT3; source: bought: one of Abcam (Ab43618), ACRO (ST3-H5149), ACE (HY-P70574)

Kd [1] [µM]	Kd [2] [µM]	Binder
6.91	–	N-terminal domain of STAT3, recombinant (domain or fragment, Limits of the purchased recombinant N-terminal domain are not given; 1-130 is taken from the paper's own shortest Flag-STAT3 truncation (1-130), which matches the usual N-terminal domain boundary. …) MAQWNQLQQLDTRYLEQLHQLYSDSFPMELRQFLAPWIESQDWAYAASKESHATLVFHNLLGEIDQQYSRFLQESNVLYQHNLRRIKQFLQSRYLEKPMEIARIVARCLWEESRLLQTAATAAQQGGQAN
–	0.224	B1
